{"source": "patent US20180291082A1", "about": "(IMMATICS BIOTECHNOLOGIES, published 2018)"}
{"molecular_target": "T1, human recombinant HLA-B*08:01 (human)", "T1 construct": "Expressed in E. coli and purified; Assay done by ImmunAware", "experiment": "pMHC dissociation at 37 C (b2m on heavy chain); mean half-life grade (+ >2 h, ++ >4 h, +++ >6 h, ++++ >10 h)", "procedure": "The peptide-MHC stability for HLA-B*08:01 peptides was performed by ImmunAware (Copenhagen, Denmark). The data were obtained using a proximity based, homogenous, real-time assay to measure the dissociation of peptides from HLA class I molecules. First human recombinant HLA-B*08:01 and b2m were expressed in E. coli and purified in a series of liquid chromatography based steps (Ferre et al., 2003; Ostergaard et al., 2001). Afterwards, the stability of a peptide-MHC complex (pMHC) can be determined by measuring the amount of b2m associated with the MHC heavy chain over time at 37° C. (Harndahl et al., 2012). The stability of each pMHC, expressed as the half life of b2m associated with the respective heavy chain, was calculated by fitting the data to a one-phase dissociation equation.", "units": {"mean half-life (T1/2) of peptide-MHC complex": "h"}}
{"binder": "YVKERSKAM", "mean half-life (T1/2) of peptide-MHC complex": "6 to 10"}
{"binder": "HIFLRTTL", "mean half-life (T1/2) of peptide-MHC complex": "4 to 6"}
{"binder": "DLKYNALDL", "mean half-life (T1/2) of peptide-MHC complex": "6 to 10"}
{"binder": "HAKEKLTAL", "mean half-life (T1/2) of peptide-MHC complex": "6 to 10"}
{"binder": "LPMLKVLNL", "mean half-life (T1/2) of peptide-MHC complex": "2 to 4"}
{"binder": "NPNLKTLL", "mean half-life (T1/2) of peptide-MHC complex": "4 to 6"}
{"binder": "YKKLRTSSF", "mean half-life (T1/2) of peptide-MHC complex": "4 to 6"}
{"binder": "FQKLKLLSL", "mean half-life (T1/2) of peptide-MHC complex": "2 to 4"}
{"binder": "LLKAEPLAF", "mean half-life (T1/2) of peptide-MHC complex": "4 to 6"}
{"binder": "EAKRHLLQV", "mean half-life (T1/2) of peptide-MHC complex": "4 to 6"}
{"binder": "EPVKKSRL", "mean half-life (T1/2) of peptide-MHC complex": "6 to 10"}
{"binder": "LPFLRENDL", "mean half-life (T1/2) of peptide-MHC complex": "4 to 6"}
{"binder": "LSYNKYLQL", "mean half-life (T1/2) of peptide-MHC complex": "4 to 6"}
